16 molecules from publication doi:10.1101/2023.07.18.549252 (bioRxiv, 2023) can be followed below.

The term Kd denotes the concentration at which binding is half-saturated. Read a high Kd as weaker binding.

The target of test [1] is Tau-LexA (Tau variant 0N4R isoform with a C-terminal LexA fusion) (Homo sapiens, UniProt P10636-6). Briefly: two-hybrid.
The target in test [2] is Tau 2N4R (recombinant; 15N-labelled for NMR) (Homo sapiens, UniProt P10636-8). Briefly: NMR titration.
The target in test [3] is Biotinylated Tau 2N4R (Homo sapiens, UniProt P10636-8, biotin (NHS-biotin conjugates, 5 molar excess; sites not stated)). Briefly: SPR. (Surface plasmon resonance follows binding to a sensor surface in real time, without labels.)
Test [4] concerns the target Tau (on the Western blot membrane) (Homo sapiens, UniProt P10636). Briefly: far-Western, overlay or dot blot.

B1: VHH Z70 mutant 3 (R47K), Gal4 activation domain fusion prey (VHH)
VHH: EVQLQASGGVFVQSGGSLRLSCAASGATSTFDGMGWFRQAPGKEKEFVSAISYEQGSYTYYADSVKGRFTISRDNSKNMVYLQMNSLRAEDTATYYCAPAYEGDLYAFDSYGGQGTQVTVSS
Consider B1, for which, in test [1], the binding result was “binds”.

B2: VHH Z70 mutant 9 (P101S + G115E) (VHH)
VHH: EVQLQASGGVFVQSGGSLRLSCAASGATSTFDGMGWFRQAPGKEREFVSAISYEQGSYTYYADSVKGRFTISRDNSKNMVYLQMNSLRAEDTATYYCASAYEGDLYAFDSYGEQGTQVTVSS
B2: the binding result in test [2] and in test [3] was “binds” in each case.

B3: VHH Z70 mutant 14, Gal4 activation domain fusion prey (VHH)
VHH: EVQLQASGGVFVQSGGSLRLSCAASGATSIFDGMGWFRQAPGKEREFVSAISYGQGSYTYYADSVKGRFTISRDNSKNMVYLQMNSLRAEDTATYYCAPAYEGDLYAFDSYGEQGTQVTVSS
Consider B3, for which the binding result in test [1] was “binds”.

B4: VHH Z70 mutant 20 (R47K + G115E) (VHH)
VHH: EVQLQASGGVFVQSGGSLRLSCAASGATSTFDGMGWFRQAPGKEKEFVSAISYEQGSYTYYADSVKGRFTISRDNSKNMVYLQMNSLRAEDTATYYCAPAYEGDLYAFDSYGEQGTQVTVSS
Turning to B4, the binding result in test [2] and in test [3] was “binds” each time.

B5: TAMRA-labelled VHH Z70 mutant 20 (double mutation R47K + G115E) with a terminal cysteine (VHH)
VHH: EVQLQASGGVFVQSGGSLRLSCAASGATSTFDGMGWFRQAPGKEKEFVSAISYEQGSYTYYADSVKGRFTISRDNSKNMVYLQMNSLRAEDTATYYCAPAYEGDLYAFDSYGEQGTQVTVSS
Take B5: in test [4], the binding result is “binds”.

B6: VHH Z70 mutant 5 (T96S), Gal4 activation domain fusion prey (VHH)
VHH: EVQLQASGGVFVQSGGSLRLSCAASGATSTFDGMGWFRQAPGKEREFVSAISYEQGSYTYYADSVKGRFTISRDNSKNMVYLQMNSLRAEDTASYYCAPAYEGDLYAFDSYGGQGTQVTVSS
For B6, the binding result in test [1] is recorded as “binds”.

B7: VHH Z70 mutant 12 (S23C + G115E), Gal4 activation domain fusion prey (VHH)
VHH: EVQLQASGGVFVQSGGSLRLCCAASGATSTFDGMGWFRQAPGKEREFVSAISYEQGSYTYYADSVKGRFTISRDNSKNMVYLQMNSLRAEDTATYYCAPAYEGDLYAFDSYGEQGTQVTVSS
Turning to B7, in test [1], the binding result is “binds”.

B8: TAMRA-labelled VHH Z70 mutant 3 (R47K) with a terminal cysteine (VHH)
VHH: EVQLQASGGVFVQSGGSLRLSCAASGATSTFDGMGWFRQAPGKEKEFVSAISYEQGSYTYYADSVKGRFTISRDNSKNMVYLQMNSLRAEDTATYYCAPAYEGDLYAFDSYGGQGTQVTVSS
For B8, in test [4], the binding result is “binds”.

B9: VHH Z70 mutant 12 (S23C + G115E) (VHH)
VHH: EVQLQASGGVFVQSGGSLRLCCAASGATSTFDGMGWFRQAPGKEREFVSAISYEQGSYTYYADSVKGRFTISRDNSKNMVYLQMNSLRAEDTATYYCAPAYEGDLYAFDSYGEQGTQVTVSS
With B9, the binding result in test [2] and in test [3] was “binds” in each case.

B10: VHH Z70 mutant 1 (G115E) (VHH)
VHH: EVQLQASGGVFVQSGGSLRLSCAASGATSTFDGMGWFRQAPGKEREFVSAISYEQGSYTYYADSVKGRFTISRDNSKNMVYLQMNSLRAEDTATYYCAPAYEGDLYAFDSYGEQGTQVTVSS
In test [3], B10 returned a Kd of 23 nM.

B11: VHH Z70 mutant 5 (T96S) (VHH)
VHH: EVQLQASGGVFVQSGGSLRLSCAASGATSTFDGMGWFRQAPGKEREFVSAISYEQGSYTYYADSVKGRFTISRDNSKNMVYLQMNSLRAEDTASYYCAPAYEGDLYAFDSYGGQGTQVTVSS
Consider B11, for which the binding result in test [2] and in test [3] was “binds” throughout.

B12: VHH Z70 mutant 9 (P101S + G115E), Gal4 activation domain fusion prey (VHH)
VHH: EVQLQASGGVFVQSGGSLRLSCAASGATSTFDGMGWFRQAPGKEREFVSAISYEQGSYTYYADSVKGRFTISRDNSKNMVYLQMNSLRAEDTATYYCASAYEGDLYAFDSYGEQGTQVTVSS
On to B12, for which the binding result in test [1] is listed as “binds”.

B13: VHH Z70 mutant 3 (R47K) (VHH)
VHH: EVQLQASGGVFVQSGGSLRLSCAASGATSTFDGMGWFRQAPGKEKEFVSAISYEQGSYTYYADSVKGRFTISRDNSKNMVYLQMNSLRAEDTATYYCAPAYEGDLYAFDSYGGQGTQVTVSS
Regarding B13, the binding result in test [2] and in test [3] was “binds” in each case.

B14: VHH Z70 mutant 14 (VHH)
VHH: EVQLQASGGVFVQSGGSLRLSCAASGATSIFDGMGWFRQAPGKEREFVSAISYGQGSYTYYADSVKGRFTISRDNSKNMVYLQMNSLRAEDTATYYCAPAYEGDLYAFDSYGEQGTQVTVSS
Regarding B14, the binding result in test [2] and in test [3] was “binds” in each case.

B15: VHH Z70 mutant 15 (R90G + P101S + G114E) (VHH)
VHH: EVQLQASGGVFVQSGGSLRLSCAASGATSTFDGMGWFRQAPGKEREFVSAISYEQGSYTYYADSVKGRFTISRDNSKNMVYLQMNSLGAEDTATYYCASAYEGDLYAFDSYEGQGTQVTVSS
On to B15, for which the binding result in test [3] is “binds”.

B16: VHH Z70 mutant 15 (R90G + P101S + G114E), Gal4 activation domain fusion prey (VHH)
VHH: EVQLQASGGVFVQSGGSLRLSCAASGATSTFDGMGWFRQAPGKEREFVSAISYEQGSYTYYADSVKGRFTISRDNSKNMVYLQMNSLGAEDTATYYCASAYEGDLYAFDSYEGQGTQVTVSS
Turning to B16, in test [1], the binding result was “binds”.
